The nature of the data set: protease stability score; higher = more stable; yeast display proteolysis, trypsin and chymotrypsin.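 Note: relative to predicted unfolded state with 0 unfolded-like and 1 meaning tenfold more protease.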
Sequence “DEDERLEEEALRLLRHSLHTGDERIITELADPHARLEFNGREFHGREDFLRFIVHMRVRHEEEKSVRLQGDKVDVNWHMVVLFDGQLRRQDVRLILWKFNGRWHIKSIRIE” displayed a protease stability score of 1.5.
The sequence “DEDERLFEEATRLWSKLVLTGDEKRLEELMDPNVRVVIGDKVFHGREIAVKVVKELRVEHIIIRRWEIIGDKAHIRGESRGIVNGVERVSTLDLTLLKIDGRWIIESIRLE” had a protease stability score of 1.09.
As for “DEDERLLKELLESLIKSHRTGDWEHLRENADPRTRLEIGDKEIIGMEKVTHFWERERKRADHEHIEIHDMKIYDGVAHVDTRLHFHFNGVDITLEFRLIMLKVNGRWILKSEHLK”, the figure is 0.133; as for “DEDERLLRDHLKLFQDAVRTGDEEVLSELLDPNVRLHIGDKTIHGREIVIDILRTEMRHLGVDYDETHLHHINIQGEWVHLHTELRLKVNGQRITLWTRLYLYKIDGKWIVTQIQLH”, 2.3.
Sequence “DEDERLMQKAMEELWDIWHTGDEDRYNELADPHDRFEVGDKEIHGREETSHFLTEFRKRVKGIRILTDRFDHRRIGDKVVLRLETRIEIDGVRIKTRLIFIIRKFNGKWHIHSIIVIIE” gave a protease stability score of 0.673.
To “DEDERLSRELLKRWMTSIMTGDETSSQHLADPHDRIDINGREFHGRELATWVAHHLRIDSIQERHQEIQGEKLIVLGETDYIVDGVKQIRRTEYILRKFNGRWFFESIIFR” belongs 0.9; to “DEDERLYRIALEFLIEWHETGDEDEITRNVDPDARVDINGRNLVGREKVHRTLKELGINVLHIHRVHIVNGRLDVDGTVRFNGRTHRTRIIMLKVDGKWILDWLFIH”, 1.56.
As for “DEDERMIDEYLKKLVKSLITGDEETFTRLVDPHARHDFNGVEYHGWLWLHMVRKRADHFEVRIKNSEVQGDKLRLDFELIFRQGDKTITLKIQVIITKVDGRWIITSIDHD”, the figure is 1.79.
“DEDERNAHRMTQILIRSQETGDEHELMRLLDPHARVIIGDKHIHGWEEFSKLEHEYWERYKNMTLHVRLRHVEVINGVAHIHTHITININGKEDRFEIEIFFLKINGRWVLHSFRVD” registered a protease stability score of 0.799.
To “DEDERNHEEIWELFLRVVMTGDWNLHKEMLDPHVRIDIDGVHIHGREEAVKHIRHLRVELNHFHIEDVKIVNGRARIQTHEEVTIRIDGVRIETRRSTELIMIKVDGRWLLHHEIVR” belongs 0.524.
In turn, “DEDERNLREFLRRMVEHWLTGNEESLKRLIDPEVRIHIGDKDLVGREEEERYHRQMRSDRLHVELDSVDIVGDKLQLHITIHIDSIVNGRRLDIKYRHTLHVRKINGRWILEESEIK” returned a protease stability score of 0.814.
As for “DEDERNVRDVAYLLLHALWTGDEDMLRHLIDPDVRFHIDGRHHHGWLRVLEMFREIRIHDFRMHDEKFRIIGDKAEARFDGESIVVIDGKEVDRRVEERYIIVKVNGQWRLKMIEVHLR”, the figure is 1.55.
To “DEDERQLEESLKHWIKALETGNEEEVMRLLDPNVKIEIGDKDLHGMEAEEERLRKVKGMRIEFRLRDMKHIGDKIDIDGELRLNFNGVDIKSKIIIFAHKFNGRWINRRIIVL” belongs 1.83; to “DEDERRDRELAEHFEHLWMTGDEETLVENLDPNARVKVGDKENHGREAFILFLREFGIDHFEFRDSKIVNGQVHIDGEIDWNGRRTRVEHIVKIVDGKVKHWEIRIK”, 1.52.
As for “DEDERSAKHYLDLWHHALETGDEHEEERLLDPHVKVDIGDKTSHGRENTRDIIRRLLEELGADVLEFHIRHVNVVNGRVHLDGELVIKVGDYTLRSRTRLLVLKVNGRWFIERIKIE”, the figure is 1.09; as for “DEDERTFRTAITLLLRDMHTGDEESFEKMVDPRTRLRYNGKELHGRDAYEFSLEELGVKHIEFKDMRVQGDFIWLEGTVNVNGKKIKLILIILKVDGKWIIHSIHLH”, 0.799; as for “DEDERTMRIAFEMFKHNLETGDEDVIRRFVDPHVKIDIDGVHLHGWEVMYERIMRFDHVDIRLRDIRTFNGRAEIDGEILVEINGVSIEKRLIIHSEKIDGRWILRSHRII”, 0.89.
In turn, “DEDERVLEEALRLWLHWVATGNETKLMEMLDPNVRLDIGDKHTHGREKFHEFMKHHKELWGVTRFHLELKRYSIQGDKVEIDIEVDINGRHFDVHIRILKIDGKWRLEQVRIN” gave a protease stability score of 1.51.
To “DEDERVMRTLLELLLRSHNTGDEDSYKQLLDPDTRVHVDGVDFHGMEFARTLARHWRVKHVELKDVRSQGNKIEADIHTVGVINGQELRTETHIITEKVNGRWVLHSISIR” belongs 1.46; to “DEDESLAKWAVEVLFEDLRTGDEDHLRRLMDPDTRFIIGDKIFHGREKAEEWLRLNRKRVDHLESFHIHHITVDENHLRVHGRVVGTFDGVEDKYETHIFARKVNGRWHHRQLKIK”, 1.49; to “DEDETFMREFLKELIHSLHTGDEETLLRLADPHTRVVINGRTLIGWETFDKLLKEARVHHHEIKRVRFFDGQVETDTRTDGRIDGVRVEIETTLIVKKVNGRWYMRSVIIT”, 0.686.
Consider “DEDEYMAKEMSELLIHLLLTGDEEHFRKFADPNVRLIIGEFESHGREEALRLLRILHRDYGIKHIHFRLRHIHQIGDKVNIHSQVELRQGDKHNSHEMTVIIWKVNGRWVIHSIDIV”, for which the protease stability score is 2.38.
As for “DEDFDIVKHIFDVYIDAILTGDFRTLERNIDPDAKLHFNGREYHGWEIVVKFMLEIRVHDVQYKTMHIYDGRVELHGRNDGVIDGQKTETDTKIIMVKIDGRWHVRHIRVG”, the figure is 1.33.
The sequence “DEDFEHARRVLELFIESVETGDENSYRRLADPNTRYHAENHEHHGREYYIRLLEELRMSVHDLKIESWRLVDGQLRLNTRTDLHVNVNGQRIRLDTETHIVLNKINGRWYIHIIYIG” came in with a protease stability score of 1.27.
Regarding “DEDFELAERFLEKWINVSRTGDEKKAHELVDPNVLINIGDKQIHGRERVVEWVSHIRIHHLEIHHFDVQGDKLIIDGRMDGTVNGRRVDHHIRIIISKVNGRWQTKTIDHE”, the protease stability score turned out to be 0.665.
Sequence “DEDFENASRTLKKFYEDEATGDEDALSELVDPNTRLDINGQQVHGWENFRKWIHHLGIKHVILHIRRYDSQGDKLHLETEEVHDFNGVEERRDTRLLLLKVDGKWIFKEIEVK” came in with a protease stability score of 1.41.
As for “DEDFEYALRVAKLFWEAVFTGDEKTLEHLLDPNVRIDINGRHIHGREELIKLFHEIRIHMHEIRIDDIRVQGNYLLVHGHVILEVNINGRTTRIETEVRIEISKVNGRWIIRQSEHT”, the figure is 2.08.
As for “DEDFRDAKHMWELYLELIHTGDEERLRKLMDPNVRVEVGDKELHGRHHYIKWVREMRMRIEDVRIRTVRNINGVVHIHGELRGEYVYGDKRVHFETEVELVLLKVNGRWKIHEEHIH”, the figure is 1.75; as for “DEDHDIIREALERWRHYVHTGDWRSLLKMMDPHVRNDVDGVDIIGREEASRYYREVFERLGVDHIDIHLRDMQIQGDKVTVHSELELNYNGRRFMHDIEIISVKVDGRWSIRSVFSK”, 1.41; as for “DEDHDLQEEILKRFEHLFRTGDWKELHHLLDPHARTRWDGRTRHGRDQVLDVMREMGADHLTIHHYNIQGEKIRIDFDLEIGDKRHKLDIHVSKINGKWIVKHIEIDTR”, 1.03.
To “DEDHDVYHRLVKITLSLLATGDESWMKKLFDPHVRVNINGVDVHGREWLLKLFRLLLERLGVDHMTAHVHDFRQYDGRVHADTTEVYDVDGREIRFKTEVIIDKFNGRWFVTFVIII” belongs 1.78.
In turn, “DEDHEAMKHFQHLLERTHRTGDEERLLRLLDPNVRIIINGQHFHGREWWARHINHMRFHEYEFRVHHINVYGDKIEIDGTLRRRGEFDGREHEVNIRVHLTIEKFDGRWYMHILEFR” showed a protease stability score of 0.795.
As for “DEDHEAVERLLEHLQTAFLTGDWRREDELVDPNARVHFNGQERHGRHVLRYVNEFLEDRFKNLQIRHSTVHDSHVQGDKIILFTSYELRVDGREFSLKTKIIFHKVDGRWLVTHLYIE”, the figure is 0.823; as for “DEDHEDMRKILELLRTAYETGDERVHEHLLDPNTRLHIGEFNNVGWHNVLEFFEQHQKELGVKHIELRLEDFDKQGDFLIIHGRLIVNVNGKRINVHLEVHMHKVNGRWYDRERRVL”, 0.928.
For the sequence “DEDHEDSKHALEYMLDSVRTGDEHRMKRLVDPNMKVHWDGVDVVGRELAAKFLSQLRVHSVHLKDHKVFDGQLDLHVHIRQEWDGRHRETRTTFFILKINGRWLVTEVRVD”, the protease stability score worked out at 0.249.
To “DEDHEEFHRLVHEIFEYWRTGDEESLSELADPHVRYLYGDKIWIGREDMMTFLREIRIDRVHIEDMRVHKIGNKAEIRSDTRMDLHFNGKRLETKTEVKIVLHKVNGRWVIKSIEYRIE” belongs 2.13; to “DEDHEELHHWSRLTLESIKTGNEDELHKFADPNVRFKVNGKDIHGMESFVRFMLEFIDRYPNLVLEEKHFHVVNGRMIQIIRVRVGDKTSEIFLIAHKVDGRWHLEHMEIR”, 1.08; to “DEDHEEVEKYLKLFMKISETGNEEDIKKMADPDTRVDIGDKRHHGMEEFLHFWSHWRIHSIDIKDIEVQGEKVIITGETDVTIDGRKLRMKIIIVALKVNGKWIHKSVKFE”, 1.37.
For the sequence “DEDHEHLERHTRLFLERWRTGDEETLLKLFDPHARSEYGDKHHVGREEVTKLMVIILEKVKGLTIRRLRIKHIEYVDGRAHMDMEVTSEIDGQEVIESVHILMTKVDGRWRIQRVILV”, the protease stability score worked out at 0.927.
To “DEDHEHLKRMADRSWKIFLTGDEDTFVHLADPNVKQHINIDGRNHQNHGREVILRWQEEFQNYFKNMKIELHDMKFYDGRVHIDATLHWNGVERKIHLIFVIVDGRIKEERFHVR” belongs 0.707; to “DEDHEIAKKASDIWWHILRTGDEDQLHKMMDPHVRTTVGDKEHHGREAVEHLTHFYKNMQIHVTHERFHVQGDKVHVEREGHLRIGDKRVEVRVRIEIHKVDGKWIIHTIEMELR”, 0.425; to “DEDHEIATKVLELWERLINTGDEEQMSRLADPNTKITIGEKDIVGREDIIKDMRHIRWKVKDFKIHDSSVIDGRIHLDGEMHVIFDVNGRRHERTIRMEIIVEKIDGRWVFKSIHIE”, 1.3.
As for “DEDHEILHRLWELLIKLLKTGDEEIMKRLADPDTKVEAEGRKLIGRDEFVKWMREFSKRFDHVEIRFKRMHIINGRVYMNGHIVEQQGEYQYRQDTIIVSEKVDGRWLITHIHIE”, the figure is 1.44.
As for “DEDHEISKRALEQWIHDLHTGDEDTLRKFADPNARMEVDGVEHHGMELAMRILLRIDVTEIRIKDMRIVDGRVEIDGEVRDKVNGKTRESRVHLYVLKVDGRWVMESITIQ”, the figure is 0.476; as for “DEDHELAEDAIRWMSKIMLTGNEEHLHEMFDPDARIRFEGRSSHGWEEMIHFIRHIRIYIKESRIRDVRIQGDKIDVIGEVKIVIRIGDKIHEDTRDVYILVVKVDGRWTVRSFELV”, 0.712.
“DEDHELMRWMLELLIDHTLTGDEERIHELADPNVKIDVNGVELHGRHLWIKYLSELRIHKVEIRQTRLIDGVMHIDTSLDISYDGVRRETQHHLVILKINGKWMIHNVSYK” displayed a protease stability score of 1.15.
As for “DEDHELSKLAQEWFYKTMVTGDEETAERLADPNMRIDINGKSLHGRKWQRHIIRDLGVDHVEFHDVRTINGQLHISTTINVDGRNQHTHIIVLKIDGRWSLRSSEFK”, the figure is 0.614.

The values are drawn from the NTF2 design screens of Basanta et al. (2020).
